Experimental data as given in patent publication US20150056210A1 (ROTTAPHARM BIOTECH S R L, published 2015).

B1: CRB0094 scFv (scFv)
scFv: QSVLTQPPSASGSPGQSVTISCTGTSSDVGGYNYVSWYQQHPGKAPKLLIYDVSNRPSGVSSRFSGSKSGNSASLTISGLQAEDEADYYCSSYTRRSTLEFGGGTKLTVLSGGSTSGSGKPGSGEGSSGTQVQLQQWGAGLLKPSGTLSLTCAVYGGSFSGYYWSWIRQPPGKGLEWIGEINHSGSTNYNPSLKSRVTISVDTSKNQFSLKLSSVTAADTAVYYCARTIWSTRHDFWSGYYSSNWFDPWGQGTLVTVSS
notes: VP16 fusion in the yeast selection; also called clone 48B
B2: CRB0091 scFv (scFv)
scFv: DIVMTQSPSSLSASVGDRVTITCRASQAIGNDLAWYQQRPGKAPKRLIYGASTLSSGVPSRFSGSGSGTEFTLTISSLQPDDFATYYCQQYNNFPYTFGLGTKVEIKSGGSTSGSGKPGSGEGSSGTQVQLQQWGAGLLKPSETLSLTCAVHGGSFSGNFWSWVRQHPGKGLEWIGEVNHRGSATYNPSLKSRVTMSVDTSKNQFSLQLSSVTAADTAVYYCARKLPRRRAEDRPSSLRPFDYWGQGTLVTVSS
notes: VP16 fusion in the yeast selection; also called clone 7A (huSPLINT_09)
B3: CRB0018 scFv (scFv)
scFv: DIVMTQSPASLAVSQGQRATISCRASESVDSYGNSFMHWYQQKPGQPPKLPIYLASNLESGVPARFSGSGSRTDFTLTIDPVEADDAATYYCQQNNEELTFGAGTKLELKRSGGSTSGSGKPGSSEGSSGTEVKLLESGGGLVQPGGSLKLSCTTSGFDFSRYWMSWVRQAPGKGLEWIGEINPDSSTINYTPSLKDKFIISRDNAKNTLYLQMSKVRSEDTALYYCARRSYWYFDVWGAGTSVTVSS
notes: VP16 fusion in the yeast selection; also called clone 7A (mSPLINT)
B4: CRB0017 scFv (scFv)
scFv: DIVITQDELSNPVTSGESVSISCRSSKSLLYKDGKTYLYWFLQRPGQSPQLPIYLMSTRASGVSDRFSGSGSGTDFTLEISRVKAEDVGVYYCQQLVEYPYTFGGGTKLEIKRSGGSTRGSGKPGSGEGSSGTQVQLQQSGAELAKPGASVKMSCKASGYTFTSYWMHWVKQRPGQGLEWIGYINPSTGYTEYNQKFKDKATLTADKSSSTAYMQLGSLTSEDSAVYYCARGGYDDLGYWGQGTTLTVSS
notes: detected in ELISA with an anti-V5 antibody, tag not described; also called clone M6
B5: CRB0124 scFv (scFv)
scFv: QVQLVQSGSDVKKPGASVRVSCKVSGYRLTEYPIHWVRQAPGKGLEYMGGFDLENGVTKAAPRFRGRFTMTEDTSTDSVYMELKSLTSEDTAVYYCVKGPGYGALVTSFTSWGLGTTVTVSSSGGSTSGSGKPGSGEGSSGTSYVLTQPPSVSVSPGQTASITCSGDKLEDKYACWYQQKPGQSPVLVIYHDYKRPSGIPERFSGSNSGNTATLTISRVEGGDEADYYCQVWDSGSDDQVFGGGTKLTVL
notes: VP16 fusion in the yeast selection; also called clone S53a
B6: CRB0102 scFv (scFv)
scFv: EVQLVESGSDVKKPGASVRVSCKVSGYRLTEYPIHWVRQAPGKGLEYMGGFDLENGVTKAAPRFRGRFTMTEDTSTDSVYMELKSLTSEDTAVYYCVKGPGYGALVTSFTSWGLGTLVTVSSSGGSTSGSGKPGSGEGSSGTETTLTQSPAFMSATPGDKIYISCKASQDIDDDMNWYQQKPGEAAIFIIQEATTLVPGIPPRFSGSGYGTDFTLTINNMESEDAAYYFCPQQDNVPLTFGGGTKVDIK
notes: VP16 fusion in the yeast selection; also called clone 15A
B7: CRB0122 scFv (scFv)
scFv: QVQLQESGGGLVRPGGSLRLSCAASGFTFSSYAMTWVRQAPGKGLEWVSAISGSGDSTYYADSVKGRFTISRDNSKNTLYLQMDSLRVEDTAVYYCARDRDLLHKDGFDIWGQGTMVTVSSSGGSTSGSGKPGSGEGSSGTQSVLTQPPSASASLGASVTLTCTLSSGYSNYKVDWYQQTPGKGPRFVMRVGTGGTVGSKGDGIPDRFSVLGSGLNRYLIIKNIQEEDETDYHCGADHGSGSNFVYVFGSGTKVTVL
notes: VP16 fusion in the yeast selection; also called clone S39
B8: CRB0019 scFv (scFv)
scFv: DIVMTQSHKFMSTSEGDRVSITCKASQDVGTAVAWYQQKPGQSPKLLIYWASTRHTGVPDRFTGSGSGTDFTLTISNVQSEDLADYICQQYCSHPYTFGAGTKLEIKRSGGSTSGSGKPGSGEGSRGTQVQLQQSGAEPVKPGASVKLSCTASGFNIKDTYMHWVKQRPEQGLEWIGRIDPAHGRTKYDPKFQGKATITADTSSNTAYLQLSSLSSEDTAVYYCAFYSYAIDYWGQGTSVTVSS
notes: VP16 fusion in the yeast selection; also called clone 14
B9: CRB0123 scFv (scFv)
scFv: QVQLQESGGGVVQPGRSLRLSCAASGFTFSGYGMNWVRQAPGTGLEWVATISFDGTDKYYADSVKGRFTISRDNAENTLYLQMNSLRAEDMAVYYCARDWSYAMDVWGQGTMVTVSSSGGSTSGSGKPGSGEGSSGTDIQMTQSPSSVSASVGDRVTITCRPSQGIGKYSAWYQQKPGKAPELPIYLASTLQSGVPSRFSDSGSGTEFTLTISSLQPEDFATYYCLQRNTYPWTFGQGTKVEIK
notes: VP16 fusion in the yeast selection; also called clone S50
B10: CRB0092 scFv (scFv)
scFv: QSVVTQPPSVSGAPGQRVTISCTGSSSNIGAGYDVHWYQQLPGTAPKLLIYGNDNRPSGVPDRFSGSKSGTSASLAITGLQAEDEADYYCQSYDNSLSGYAVFGGGTQLTVLSGGSTSGSGKPGSGEGSSGTQVQLVESGGGLVQPGGSLRLSCAASGFRFSSHDMHWVRQVPGKGLEWVSRIGTVGDTYYADSVKGRFTISRDNSKNTLFLQMNSLGAEDTAVYYCARDGTRYCSRTSCHSGYYYYGMDVWGQGTTVTVSS
notes: VP16 fusion in the yeast selection; also called clone C21
B11: CRB0123_IgG4 (antibody, V domains shown)
VH: QVQLQESGGGVVQPGRSLRLSCAASGFTFSGYGMNWVRQAPGTGLEWVATISFDGTDKYYADSVKGRFTISRDNAENTLYLQMNSLRAEDMAVYYCARDWSYAMDVWGQGTMVTVSS
VL: DIQMTQSPSSVSASVGDRVTITCRPSQGIGKYSAWYQQKPGKAPELPIYLASTLQSGVPSRFSDSGSGTEFTLTISSLQPEDFATYYCLQRNTYPWTFGQGTKVEIK
notes: also called mAb CRB0123; monoclonal antibody CRB0123
B12: monoclonal antibody CRB0102 (antibody, V domains shown)
VH: EVQLVESGSDVKKPGASVRVSCKVSGYRLTEYPIHWVRQAPGKGLEYMGGFDLENGVTKAAPRFRGRFTMTEDTSTDSVYMELKSLTSEDTAVYYCVKGPGYGALVTSFTSWGLGTLVTVSS
VL: ETTLTQSPAFMSATPGDKIYISCKASQDIDDDMNWYQQKPGEAAIFIIQEATTLVPGIPPRFSGSGYGTDFTLTINNMESEDAAYYFCPQQDNVPLTFGGGTKVDIK
notes: also called CRB0102 IgG4
B13: CRB0017_IgG4 (antibody, V domains shown)
VH: QVQLQQSGAELAKPGASVKMSCKASGYTFTSYWMHWVKQRPGQGLEWIGYINPSTGYTEYNQKFKDKATLTADKSSSTAYMQLGSLTSEDSAVYYCARGGYDDLGYWGQGTTLTVSS
VL: DIVITQDELSNPVTSGESVSISCRSSKSLLYKDGKTYLYWFLQRPGQSPQLPIYLMSTRASGVSDRFSGSGSGTDFTLEISRVKAEDVGVYYCQQLVEYPYTFGGGTKLEIK
notes: Chimeric IgG: murine variable domains on human constant domains (Fc from human IgG4, kappa light chain), made in CHO-S cells; also called mAb CRB0017; CRB017 IgG4

target: T1, Spacer-GST (human); test: ELISA, Spacer-GST coated at 10 µg/mL, scFv in solution, anti-V5 detection
T1 construct: also called recombinant Spacer-ADAMTS-5-GST protein
T1 sequence (chain, as listed by the source limits assumed): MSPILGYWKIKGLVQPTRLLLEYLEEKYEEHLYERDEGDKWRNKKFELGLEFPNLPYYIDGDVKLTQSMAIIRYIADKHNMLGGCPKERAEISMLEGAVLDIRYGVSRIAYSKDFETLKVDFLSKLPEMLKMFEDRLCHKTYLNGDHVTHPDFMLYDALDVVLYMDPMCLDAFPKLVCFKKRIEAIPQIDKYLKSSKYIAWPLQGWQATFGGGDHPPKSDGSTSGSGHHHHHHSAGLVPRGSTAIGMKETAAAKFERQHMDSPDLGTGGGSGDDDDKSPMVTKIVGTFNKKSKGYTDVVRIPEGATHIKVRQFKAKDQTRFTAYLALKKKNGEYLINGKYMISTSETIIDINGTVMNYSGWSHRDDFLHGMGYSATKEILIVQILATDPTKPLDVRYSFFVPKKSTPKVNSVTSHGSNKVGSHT
Method: FIG. 3. ELISA reactivity of isolated anti-Sp_ADAMTS-5 scFvs with Spacer-GST and GST negative control. Spacer-GST and GST antigens were coated at 10 μg/mL. […] The mean absorbance at 450 nm of the experiments performed in duplicate wells is shown with SD indicated by the bars.
Nunc Maxi-Sorp Immunoplate was coated with […] Sp_ADAMTS-5-GST and GST at 10 μg/mL in coating buffer (100 mM Na₂CO₃ pH 9.6). Plate was incubated overnight at 4° C. next day, the unbound antigens were discarded and plate was washed 3× with PBS. Non-specific binding was blocked by adding […] of 3% MPBS (3% fat free milk in PBS). Plate was incubated for 1 h at RT. Plate was washed 3×TPBS (0.1% Tween20 in PBS) and 3×PBS. 100 μL of serial dilution of anti-Sp_ADAMTS-5scFv (0.5-50 μg/mL) in 3% MPBS was added to appropriate wells. Then plate was incubated for 2 h at RT. After washing with 3×TPBS and 3×PBS, 100 μL of anti-V5 antibody (Invitrogen) diluted 1:5000 in 3% MPBS was added to each well. Plate was incubated for 1 h and 30 min at RT. After washing with 3×TPBS and 3×PBS 100 μL of anti-mouse HRP (DAKO) diluted 1:2000 in 3% MPBS was added to each well. Plate was incubated for 1 h at RT. After washing with 3×TPBS and 3×PBS 80 μL of TMB (Sigma) was added. Plate was incubated in dark chamber until samples reach the desired signal. 80 μL of stopping solution (500 mM H₂SO₄) was added to each well before reading. Data were collected measuring OD(450 nm) by LD 400 Luminescence Detector (Beckman Coulter).

| Binder | binding result |
| --- | --- |
| B1 | binds |
| B2 | binds |
| B3 | binds |
| B4 | binds |
| B5 | binds |
| B6 | binds |
| B7 | binds |
| B8 | binds |
| B9 | binds |
| B10 | binds |

target: T1, Spacer-GST; test: sandwich ELISA with Spacer-GST, data not shown

| Binder | binding result |
| --- | --- |
| B11 | binds |
| B12 | binds |

target: T1, Spacer-GST; test: SPR (Biacore X-100), CRB0017_IgG4 immobilised on CM5 chip, Spacer-GST in solution, KD1

| Binder | Kd |
| --- | --- |
| B13 | ~2 nM |

target: T1, Spacer-GST; test: SPR (Biacore), Spacer-GST immobilised, CRB0017_IgG4 in solution, bivalent binding model, KD2, data not shown

| Binder | Kd |
| --- | --- |
| B13 | 7 nM |
